# Test results: the RNAGym collection of RNA variant scans (doi:10.1073/pnas.2313332121)
# B1: TPR t1 (parent)
# chain: GACCAAUCUGCCCUCAGAGCUCGAGAACAUCUUCGGAUGCAGAGGAGGCAGGCUUCGGUGGCGCGAUAGCGCCAACGUCCUCAACCUCCAAUGCAUCCCACCACAUGAUGAUGCCUGAAGAGCCUUGGUUUUUUG
# Variants of: B1
# Assay: polymerase ribozyme fitness, log enrichment relative to wild type (log ratio); higher = more active; in vitro selection for triplet polymerase activity
# In short: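 Each subunit of a heterodimeric triplet polymerase ribozyme was mutagenized into a library by PCR, transcribed, and subjected to one round of in vitro selection, run in triplicate. Libraries were annealed with a biotinylated primer, the partner subunit and triplets, incubated frozen at −7 °C, and extended constructs were gel-excised, captured on streptavidin beads and recovered by RT-PCR. Input and output libraries were sequenced on Illumina, keeping genotypes with ≥10 input reads and ≥1 read per output. Fitness is log base 2 of genotype enrichment divided by wild-type enrichment, from inverse-variance-weighted replicate averages.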
row,Variant,polymerase ribozyme fitness (log ratio)
1,C15G U106G G117C,0.15
2,C13U C123U,1.41
3,C13U C70A,-0.46
4,C15G U32C A43G G45U C89G,-4.49
5,C13U G63U A90U G117C,-5.21
6,C13U G36A C88U,-0.556
7,C15U A50U G63C C89U,-3.78
8,C13U G48A C56A G71A A90G,-4.36
9,U14A C49U G52U A121U U125A,-1.22
10,C15A A111G,-2.08
11,U14C C40G C49G,-3.41
12,U14C A18U G48U G71A,-6.1
13,C13U C98A C115U,-5.17
14,C13U C73G A83G,-1.22
15,U14A A18U C31G U38G G107A C124A,-6.73
16,C15A A46C G63A G113C C114U,-6.03
17,C15G A16U C72U U109A C115U,-6.16
18,C15U C34G C53U C114U,-5.11
19,C15U G42C C76U U106A,-4.25
20,U14G C15A,-3.45
21,U14G G120U,-1.14
22,U14C C72A,-0.983
23,C15U G44A G47A A105U,-5.8
24,C15A A68G C97A A103G,-6.8

row,Variant,polymerase ribozyme fitness (log ratio)
1,C13U U21C C64U,-0.0953
2,C15G C56U U87A C115U U131C,-0.823
3,C15G A46G C56G,-4.02
4,U14A G120A,-0.235
5,C15G U112A,-1.44
6,U14G G42U G45C C64U C101U C123A G135U,-4.44
7,C15U A16U C76A C115A C123A U130C,-5.56
8,U14C U33C,-5.43
9,U14C U55C G117U U133G,-5.59
10,C15U G48A,-1.7
11,U14A A43G G58A C86U,-4.43
12,C15A C20A G71U A118U,-4.11
13,C13U G17U,-2.37
14,U14A G36A C56U,-3.35
15,U14G G71A G120C,-0.108
16,C13U U33G G69U C104G G120A U125C,-6.78
17,C13U G60C,-0.502
18,C15A G47U G61U G110A,-3.43
19,C15A G120A,0.181
20,C15G G61C A119G,-0.591
21,C15G G57A,-4.5
22,C15G C85U,-3.82
23,C15U G36A,-1.76
24,C13U G52C C94G A100U G113A,-2.95

row,Variant,polymerase ribozyme fitness (log ratio)
1,C15G A37U A66G C123A,-3.27
2,C15G C115A,-2.88
3,C13U U59A U81C,-0.938
4,U14A A46C G69A C101U G110U U126A,-6.24
5,C15U A18G A37G U54A A100U C115A,-5.29
6,C15U G42C A46U,-3.23
7,C13U C82G,0.0764
8,C15U C76G G77C C123A,-2.59
9,C13U G45U G60C C82U,-0.444
10,C15U G39C G71A,-2.36
11,U14C C20A C114U G128U,-5.92
12,C15U C79G C98U,-4.8
13,U14A A74C C76A A121C,-1.88
14,C13U G39A A68C A91G C123A,-7.34
15,U14G A37G G42A G77A,-4.88
16,C15G C70U,-3.1
17,C13U U30C C56U A121C U130G,-1.57
18,U14G G69A A90C U112A G128A,-6.5
19,C15G G120C,-0.975
20,C13U G39U G61C,-1.9
21,C15G G117C,-3.41
22,U14A A74G G117U,-4.7
23,C15A C82G G117C G120C,-5.78
24,U14A C85A C89G C123U,-3.2

row,Variant,polymerase ribozyme fitness (log ratio)
1,U14A C70G U125A,-4.4
2,C13U C76A,-0.633
3,U14G U129G,-3.21
4,C15A U32C G71C,-2.71
5,C15A C49G,-2.46
6,C15A G61U C89U G122U C124G G135A,-0.759
7,C15U G48C C72G U112A,-0.505
8,U14G C40G C86U A90G U106A,-3.96
9,U14C A46U C62U U125A,-3.37
10,C15G A16U G69C,-4.45
11,C13U U14A A27U G47C,-6.21
12,C15A G39C,-3.41
13,C15A G39A,-2.28
14,C15G G52U U87G,-3.21
15,C15G G63U,-3.98
16,C15G G63A,-3.35
17,U14C U78A C80A,-4.98
18,U14G C22U A29G G61A C124G U129C,-4.06
19,U14C G60C C64A U109G,-6.09
20,C13U G42U C70U A121C,0.0681
21,C15G C101U,-2.56
22,C15G C101A,-3.78
23,U14A C115U,-3.52
24,C13U U32C G93C A95G,-1.09

row,Variant,polymerase ribozyme fitness (log ratio)
1,C15G C53G C72A U81A G120C C123G,-2.32
2,C15U G42C G71U,-3.24
3,C15U G35C G69U,-2.64
4,U14A G61U U81A C97U,-3.36
5,C13U G19U G52U C64U,-3.78
6,U14C C31G U33G G65U A95U G117U,-7.34
7,C15A A29G C72A U81A U87C G120C,-2.96
8,C13U U92C C104U,-1.33
9,C13U G44A A50C G63A C85A,-3.07
10,U14G G47U C101G G120U,-4.67
11,C15U C72A C82U,-1.42
12,C15A A46C A84C A91U,-4.15
13,U14A U54A C56U U130G,-3.42
14,C15U C114A,-3.36
15,U14A G57A G61A A90G C124A,1.08
16,C15G G44C G47A G69U G135U,-3.36
17,C13U G135U,-0.441
18,U14A C22A C101A U116G C124U,-5.17
19,C13U C72G C85G C123U,-0.494
20,C15G C34A,-5.11
21,U14C G42U G44A G61U,-2.82
22,C15A C20A G107A A121G,-5.21
23,C13U G35A C86G,-3.98
24,C15U A16U G58C C72U C80A A111C,-6.92

row,Variant,polymerase ribozyme fitness (log ratio)
1,C15G C94A,-3.63
2,C15A U109G G113A U131A,-5.16
3,C13U U55G A91G,-0.322
4,C15A G48C,-3.05
5,U14A A29G G113A,-5.5
6,C15G C28A G44U G52U G69U,-5.21
7,U14A A41C,-4.27
8,C13U G110U,-1.02
9,C13U G44U C56A,-1.59
10,C15A G57U C64G,-6.59
11,C15A G61C,-4.23
12,C15A G61A,-2.09
13,U14A C70G G77C U112C A119G U131G,-3.76
14,C15A C20U U109A,-5.4
15,C15U G42C,-2.79
16,C15U C86U C102A,-4.01
17,C13U G47C C73A C99U,-4.72
18,C15U C22G G61C C114G,-7.09
19,U14C G57A C97U,-3.84
20,U14A C31U U87C U112G,-6.24
21,C13U G42U,-1.12
22,C15U C82G A108G A111G A121C,-6.58
23,U14C C80U,-2.7
24,C13U C72G A74U G93A C114G,-4.31

row,Variant,polymerase ribozyme fitness (log ratio)
1,C15U A16U G42C G61A C89A,-1.37
2,C15U A37G G71A C80U A118U U133A,-4.3
3,C15U A74G C88A A91C,-2.13
4,C13U U112C,1.07
5,C15U G44U G71C,-2.64
6,C15A G63C C88U,-3.01
7,U14A C70A,-4.09
8,C15U C56G G60U U78G U92A,-6.42
9,U14G C20G G44U G117C,-6.5
10,U14G C80U C102U C123G,-1.69
11,C15A G69C,-3.57
12,U14A G63C C82U U132A,-3.33
13,U14G G51A G113A G120A A121G,-2.87
14,U14A C56A C62U,-2.93
15,C13U C102A,-2.14
16,C15A C56U,-1.71
17,C15A C56A,-0.645
18,C15U A27U,-4.81
19,C13U C104A,-1.47
20,C13U U55A G61C A84U C85G A95G U125G G128U,-3.92
21,C13U G93C,-0.682
22,C15A G63U C72U U129G U131C,-4.85
23,U14G G48U G60U,-2.56
